Reference: article PMC11965572
Values joined by “and” are separate entries in the source; they are usually repeats but may differ in a detail not shown here. Equal entries are not always repeated.

Target: wild-type human ACE2-Fc (human) (UniProt Q9BYF1)
Assay: SEC; protein A-purified wild-type ACE2-Fc fractionated on a Superdex 200 column

Substance “wild-type human ACE2-Fc (from UniProt Q9BYF1 18-728) (Fc fusion)” has a percent as higher oligomers of 18%, a percent as tetramers of 9% and a percent in a dimeric state of 73%. The stoichiometry N was 2 and 4.
